The results in this text go back to FireProtDB (doi:10.1021/bi002812d).

B1: Cyclin-dependent kinases regulatory subunit, P08463 (parent)
chain: MSKSGVPRLLTASERERLEPFIDQIHYSPRYADDEYEYRHVMLPKAMLKAIPTDYFNPETGTLRILQEEEWRGLGITQSLGWEMYEVHVPEPHILLFKREKDYQMKFSQQRGG

Values joined by “and” are separate entries in the source; they are usually repeats but may differ in a detail not shown here. Identical values can stand only once.

In the data set the parent is B1. Conditions: Schizosaccharomyces pombe (strain 972 / ATCC 24843), pH 7.1, 25 °C, GdnHCl, Fluorescence, Tris-HCl, NaCl, reversible: yes, structure 1SCE, whole UniProt chain shown.

On to P90V P92V, for which, where the note is “transition: 2+2”, the denaturant m value stood at 1.88 kcal/mol/M, the “denaturant midpoint (higher = more stable)” value (from here on “denaturant midpoint”) amounted to 4.14 M and the unfolding free energy turned out to be 32.6 kJ/mol. Also, for the setting “transition: 2”, the denaturant m value is 3.42 kcal/mol/M and 3.31 kcal/mol/M; the “denaturant midpoint” value is 2.04 M and 1.67 M; the unfolding free energy was 29.2 kJ/mol and 23.1 kJ/mol. Further, where the note is “transition: 3”, the denaturant m value was 1.7 kcal/mol/M and 3.39 kcal/mol/M; the “denaturant midpoint” value was 0.74 M and 2.08 M.

As to P92V, under “transition: 2”, the “ddG of mutation (higher = less stable)” value was 0.753 kJ/mol and 0.335 kJ/mol; the denaturant m value is 3.85 kcal/mol/M and 3.55 kcal/mol/M; the “denaturant midpoint” value was 1.86 M and 2.05 M; the unfolding free energy is 30 kJ/mol and 30.5 kJ/mol.

In the case of P90V, for the setting “transition: 2”, the “ddG of mutation (higher = less stable)” value is 2.64 kJ/mol and 2.59 kJ/mol; the denaturant m value is 3.42 kcal/mol/M and 3.55 kcal/mol/M; the “denaturant midpoint” value was 1.96 M and 1.9 M; the unfolding free energy is 28.1 kJ/mol and 28.2 kJ/mol.
